For assay [1], the target named is T1, His-tagged human CD47 (human, UniProt Q08722 19-139, limits assumed).
T1 construct: loaded on HIS1K biosensors at 2.5 µg/mL; also called target antigen; not shown: His tag
The experiment in a line: BLI, His-CD47 on HIS1K sensor, antibody 15 µg/mL. The procedure: (§1) The capacity of the masking domains to inhibit binding activity of the antibody was evaluated by Bio-Layer Interferometry (BLI). […] Binding experiments were performed to evaluate the masking efficiency and the binding recovery after cleavage of the masking domains. BLI was performed on an Octet RED96 system (Sartorius). His-tagged human CD47 was diluted at 2.5 μg/mL in Kinetic Buffer (KB) (Sartorius) and loaded on HIS1K biosensors (anti-His tag antibody biosensors, Sartorius) for 300 seconds. Loaded biosensors were dipped into antibodies diluted at 15 μg/mL in KB for 300 seconds to monitor association. Then, biosensors were transferred in KB for dissociation for 60 seconds. Binding profiles were then analyzed with ForteBio Data Analysis software.

Assay [2] deals with T2, CD47 at the surface of Peak cells (human, UniProt Q08722 19-323).
T2 construct: whole, on cells; also called cell surface CD47
The experiment in a line: flow cytometry, Peak cells. On the procedure:
(§2) Binding activity of antibody-cytokine/receptor fusions before and after cleavage was also evaluated by flow cytometry. Peak cells derived from HEK 293 which are human cells expressing CD47 were used to evaluate masking efficacy and binding recovery to CD47 by flow cytometry. Peak cells were diluted in cold FACS buffer (PBS, 2% BSA) to 1.2×10⁶ cells/mL. 3×10⁵ cells/well were added in a 96 well V-bottom plate. The plate was then centrifugated for 5 min at 1300 rpm, 4° C. Supernatants were removed and cells were washed twice using FACS buffer. A serial dilution of antibody-cytokine/receptor fusions previously digested with MMP-9 or not digested as described above was prepared in FACS buffer. An irrelevant antibody was included. Then, 150 μL of each diluted antibody were added in corresponding well and incubated for 30 min at 4° C. Cells were washed twice with FACS buffer and 100 μL of a mouse anti human Fc-PE conjugated secondary antibody were added and the plate was incubated for 20 min at 4° C. Cells were then washed twice with FACS buffer. Finally, 150 μL of SYTOX blue dead cell stain (ThermoFisher) diluted to 1/5000 in FACS buffer were added before detection by flow cytometry with Cytoflex (Beckman Coulter). Acquisition was performed with 10000 events for each well. Data were analyzed by FlowJo software.
A general note: In flow cytometry, cells or beads pass a laser one at a time.

In assay [3] the target is T3, low-moderate affinity dimeric IL-2R (IL-2Rβ and IL-2Rγ) on HEK-Blue CD122/CD132 cells (UniProt P14784 27-551; P31785 23-369, limits assumed).
T3 sequence (looked up) 1: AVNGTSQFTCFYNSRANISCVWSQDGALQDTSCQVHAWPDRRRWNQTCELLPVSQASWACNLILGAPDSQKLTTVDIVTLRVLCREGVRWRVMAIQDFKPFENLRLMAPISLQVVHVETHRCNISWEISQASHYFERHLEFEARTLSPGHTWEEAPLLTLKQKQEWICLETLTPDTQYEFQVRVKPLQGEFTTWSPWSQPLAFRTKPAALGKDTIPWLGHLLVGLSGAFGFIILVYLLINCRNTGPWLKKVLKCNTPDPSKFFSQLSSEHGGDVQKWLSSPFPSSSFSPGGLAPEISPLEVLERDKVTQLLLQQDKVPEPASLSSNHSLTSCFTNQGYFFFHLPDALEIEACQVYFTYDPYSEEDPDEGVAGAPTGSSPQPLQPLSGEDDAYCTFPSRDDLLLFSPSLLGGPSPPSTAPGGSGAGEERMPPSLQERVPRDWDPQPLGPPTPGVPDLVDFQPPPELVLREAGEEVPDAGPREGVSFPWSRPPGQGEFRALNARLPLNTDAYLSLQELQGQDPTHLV
T3 sequence (looked up) 2: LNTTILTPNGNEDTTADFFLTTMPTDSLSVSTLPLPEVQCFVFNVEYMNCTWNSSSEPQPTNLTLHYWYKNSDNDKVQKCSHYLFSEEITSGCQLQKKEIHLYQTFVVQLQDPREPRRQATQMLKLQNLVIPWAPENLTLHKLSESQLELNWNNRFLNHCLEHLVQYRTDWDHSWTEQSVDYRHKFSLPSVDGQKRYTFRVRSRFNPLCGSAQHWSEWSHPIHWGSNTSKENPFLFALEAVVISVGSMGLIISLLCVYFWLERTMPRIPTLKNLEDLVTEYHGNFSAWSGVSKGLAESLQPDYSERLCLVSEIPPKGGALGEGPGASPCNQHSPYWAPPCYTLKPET
The assay can be described thus: cell-based or functional assay.

Assay [4] deals with T4, high affinity trimeric IL-2R (IL-2Rα, IL-2Rβ and IL-2Rγ) on HEK-Blue IL-2 cells (UniProt P01589 22-272; P14784 27-551; P31785 23-369).
T4 sequence (looked up) 1: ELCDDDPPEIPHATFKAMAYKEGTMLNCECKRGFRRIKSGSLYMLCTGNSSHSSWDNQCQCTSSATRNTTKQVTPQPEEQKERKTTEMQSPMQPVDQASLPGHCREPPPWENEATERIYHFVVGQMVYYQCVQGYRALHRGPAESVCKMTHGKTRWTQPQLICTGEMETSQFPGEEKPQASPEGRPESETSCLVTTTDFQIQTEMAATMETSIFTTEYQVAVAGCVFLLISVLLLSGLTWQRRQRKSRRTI
T4 sequence (looked up) 2: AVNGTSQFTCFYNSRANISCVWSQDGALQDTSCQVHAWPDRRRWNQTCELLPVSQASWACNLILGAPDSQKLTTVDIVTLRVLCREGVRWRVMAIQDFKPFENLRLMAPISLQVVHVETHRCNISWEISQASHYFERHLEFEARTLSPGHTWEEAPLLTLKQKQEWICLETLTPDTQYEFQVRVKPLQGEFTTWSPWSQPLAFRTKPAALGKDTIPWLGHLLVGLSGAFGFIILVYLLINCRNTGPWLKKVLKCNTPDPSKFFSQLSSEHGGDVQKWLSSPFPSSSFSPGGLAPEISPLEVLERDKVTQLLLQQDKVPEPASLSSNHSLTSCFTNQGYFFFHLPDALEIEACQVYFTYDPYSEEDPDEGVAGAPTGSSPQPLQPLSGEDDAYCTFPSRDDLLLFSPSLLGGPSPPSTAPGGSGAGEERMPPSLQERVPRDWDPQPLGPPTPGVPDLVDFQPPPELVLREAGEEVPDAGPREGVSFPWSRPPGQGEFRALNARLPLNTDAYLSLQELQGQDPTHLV
T4 sequence (looked up) 3: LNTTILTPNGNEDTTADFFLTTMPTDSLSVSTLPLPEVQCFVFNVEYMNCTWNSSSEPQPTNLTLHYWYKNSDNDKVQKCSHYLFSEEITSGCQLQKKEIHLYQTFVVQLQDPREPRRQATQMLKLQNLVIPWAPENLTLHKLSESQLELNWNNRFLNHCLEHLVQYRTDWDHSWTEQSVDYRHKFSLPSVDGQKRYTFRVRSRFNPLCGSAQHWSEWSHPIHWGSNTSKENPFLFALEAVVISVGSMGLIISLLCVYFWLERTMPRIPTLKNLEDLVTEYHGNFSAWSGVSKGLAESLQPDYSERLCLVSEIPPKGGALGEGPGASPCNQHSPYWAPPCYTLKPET
The assay can be described thus: cell-based or functional assay.

Assay [5] addresses T1, His-tagged human CD47. The experiment in a line: BLI, His-CD47 on HIS1K sensor, after MMP-9 treatment. On the procedure: as §1
(In general: BLI is a label-free optical method that tracks binding on a fibre tip over time.)

Assay [6] addresses T2, CD47 at the surface of Peak cells. The assay can be described thus: flow cytometry, Peak cells, after MMP-9 treatment. On the procedure: as §2

B1: pNOVI V2K K91 (antibody, human IgG1, kappa)
light: DIQMTQSPSSLSASVGDRVTITCNVDQVIANWLNWYQQKPGKAPKLLIYAASSLQSGVPSRFSGSGSGTDFTLTISSLQPEDFATYYCQQMHPRAPKQFGQGTKVEIKRTVAAPSVFIFPPSDEQLKSGTASVVCLLNNFYPREAKVQWKVDNALQSGNSQESVTEQDSKDSTYSLSSTLTLSKADYEKHKVYACEVTHQGLSSPVTKSFNRGEC
heavy: not shown
notes: also called n46; construct No 46
For the molecule B1, the “Binding before cleavage (BLI)” value with His-tagged human CD47 [1] was found to be 1.8 nm. The EC50 (in general, the concentration that produces a half-maximal response) in assay [2] is 0.062 nM.

B2: Construct No 41 after cleavage by MMP-9 (antibody)
light: DIQMTQSPSSLSASVGDRVTITCNVDQVIANWLNWYQQKPGKAPKLLIYAASSLQSGVPSRFSGSGSGTDFTLTISSLQPEDFATYYCQQMHPRAPKQFGQGTKVEIKRTVAAPSVFIFPPSDEQLKSGTASVVCLLNNFYPREAKVQWKVDNALQSGNSQESVTEQDSKDSTYSLSSTLTLSKADYEKHKVYACEVTHQGLSSPVTKSFNRGEC
heavy: not shown
notes: MMP-9 digest of m8; the sample also holds the released IL-2 and IL-2Rα; also called n41 after cleavage; not shown: remnant of CM1 and linker after MMP-9 cleavage
With B2, the “EC50 after cleavage IL-2, HEK Blue IL-2 βγ reporter assay” value in assay [3] is 0.01 nM. Also, the “EC50 after cleavage IL-2, HEK Blue IL-2 αβγ reporter assay” value in assay [4] was 0.02 nM. The “Binding after cleavage (BLI)” value with His-tagged human CD47 [5] was 1.7 nm. In addition, it took 0.2 nM to reach a half-maximal effect in assay [6] (EC50).

B3: pNOVI V2K K91_IL15_CM1_VHCH (antibody)
light: DIQMTQSPSSLSASVGDRVTITCNVDQVIANWLNWYQQKPGKAPKLLIYAASSLQSGVPSRFSGSGSGTDFTLTISSLQPEDFATYYCQQMHPRAPKQFGQGTKVEIKRTVAAPSVFIFPPSDEQLKSGTASVVCLLNNFYPREAKVQWKVDNALQSGNSQESVTEQDSKDSTYSLSSTLTLSKADYEKHKVYACEVTHQGLSSPVTKSFNRGEC
heavy: not shown
notes: masked K91 fusion, uncleaved; 49% aggregates; also called n111; construct No 111
As for B3, the “Binding before cleavage (BLI)” value with His-tagged human CD47 [1] is 1.5 nm.

B4: pNOVI V2K K91_IL-2 CM1_VHCH (antibody, human IgG1, kappa)
light: DIQMTQSPSSLSASVGDRVTITCNVDQVIANWLNWYQQKPGKAPKLLIYAASSLQSGVPSRFSGSGSGTDFTLTISSLQPEDFATYYCQQMHPRAPKQFGQGTKVEIKRTVAAPSVFIFPPSDEQLKSGTASVVCLLNNFYPREAKVQWKVDNALQSGNSQESVTEQDSKDSTYSLSSTLTLSKADYEKHKVYACEVTHQGLSSPVTKSFNRGEC
heavy: not shown
notes: masked K91 fusion, uncleaved; also called n13; construct No 13
Take B4: the “Binding before cleavage (BLI)” value with His-tagged human CD47 [1] was determined as 2.3 nm.

B5: pNOVI V2K K91_IL-2 CM1_CM2_VHCH (antibody, human IgG1, kappa)
light: DIQMTQSPSSLSASVGDRVTITCNVDQVIANWLNWYQQKPGKAPKLLIYAASSLQSGVPSRFSGSGSGTDFTLTISSLQPEDFATYYCQQMHPRAPKQFGQGTKVEIKRTVAAPSVFIFPPSDEQLKSGTASVVCLLNNFYPREAKVQWKVDNALQSGNSQESVTEQDSKDSTYSLSSTLTLSKADYEKHKVYACEVTHQGLSSPVTKSFNRGEC
heavy: not shown
notes: masked K91 fusion, uncleaved; also called n17; construct No 17
For the molecule B5, in the assay with His-tagged human CD47 [1], the “Binding before cleavage (BLI)” value came to 2.2 nm.

B6: pNOVI V2K K33 (antibody, human IgG1, kappa)
light: DIQMTQSPSSLSASVGDRVTITCRASQSISSYLNWYQQKPGKAPKLLIYAASSLQSGVPSRFSGSGSGTDFTLTISSLQPEDFATYYCQQFHKRSPQKFGQGTKVEIKRTVAAPSVFIFPPSDEQLKSGTASVVCLLNNFYPREAKVQWKVDNALQSGNSQESVTEQDSKDSTYSLSSTLTLSKADYEKHKVYACEVTHQGLSSPVTKSFNRGEC
heavy: not shown
notes: also called n22; construct No 22
On to B6, for which, in the assay with His-tagged human CD47 [1], the “Binding before cleavage (BLI)” value is 1.3 nm.

Source of the values: US20240254223A1 (NOVIMMUNE, published 2024).
